Experimental data published in article PMC3966550.

Target: CXCR2-4A/IL (S342A/S346A/S347A/S348A and I323A/L324A) (human)
Experiment: co-IP

β-arrestin1, sequence (P49407 whole entry): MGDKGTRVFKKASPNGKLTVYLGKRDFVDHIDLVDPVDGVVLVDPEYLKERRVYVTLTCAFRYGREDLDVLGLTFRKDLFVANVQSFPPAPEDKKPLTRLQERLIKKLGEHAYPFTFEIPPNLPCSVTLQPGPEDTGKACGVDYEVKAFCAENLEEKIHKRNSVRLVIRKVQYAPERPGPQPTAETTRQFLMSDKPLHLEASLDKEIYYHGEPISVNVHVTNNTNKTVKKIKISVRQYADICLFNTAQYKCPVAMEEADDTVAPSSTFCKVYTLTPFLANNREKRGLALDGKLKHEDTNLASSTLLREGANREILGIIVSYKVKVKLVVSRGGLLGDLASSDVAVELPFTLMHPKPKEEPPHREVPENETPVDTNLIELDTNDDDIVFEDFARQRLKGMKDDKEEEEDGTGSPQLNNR

“β-arrestin1 (from UniProt P49407 1-418) (natural protein)” was tested, and the reduction of binding (co-precipitated β-arrestin1) was 90%.
